Bounds are passed on as bounds.

Common to all, as to assay: cell-based or functional assay
One test concerns the target T1, CD14 (UniProt P08571).
T1 sequence: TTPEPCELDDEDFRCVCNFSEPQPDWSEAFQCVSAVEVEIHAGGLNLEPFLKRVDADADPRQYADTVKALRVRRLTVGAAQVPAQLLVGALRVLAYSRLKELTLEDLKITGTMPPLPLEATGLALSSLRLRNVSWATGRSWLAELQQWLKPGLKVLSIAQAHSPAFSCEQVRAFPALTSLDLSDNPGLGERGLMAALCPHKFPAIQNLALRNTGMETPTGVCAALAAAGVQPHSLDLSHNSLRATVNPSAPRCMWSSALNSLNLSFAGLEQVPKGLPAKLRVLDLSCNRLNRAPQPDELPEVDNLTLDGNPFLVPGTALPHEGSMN

In test [1] the target is T cell receptor (TCRab) (human).
For the next test, the target named is human CD8a (human) (UniProt P01732).
UniProt P01732, sequence (P01732 22-235): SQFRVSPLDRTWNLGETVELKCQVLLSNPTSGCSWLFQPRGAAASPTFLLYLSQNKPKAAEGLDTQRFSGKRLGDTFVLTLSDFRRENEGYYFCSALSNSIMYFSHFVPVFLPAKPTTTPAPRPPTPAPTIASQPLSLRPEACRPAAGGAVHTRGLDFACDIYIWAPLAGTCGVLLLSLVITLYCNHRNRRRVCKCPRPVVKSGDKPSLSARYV

B1: membrane anchored anti-CD14 scFv (scFv)
scFv: DDVQLQQSGPGLVKPSQSLSLTCTVTGYSITSDSAWNWIRQFPGNRLEWMGYISYSGSTSYNPSLKSRISITRDTSKNQFFLQLNSVTTEDTATYYCVRGLRFAYWGQGTLVTVSSGGGGSGGGGSGGGGSDIVLTQSPASLAVSLGQRATISCRASESVDSYVNSFLHWYQQKPGQPPKLLIYRASNLQSGIPARFSGSGSRTDFTLTINPVEADDVATYYCQQSNEDPYTFGGGTKLEIK
Turning to B1, the percentage transduction of primary monocytes versus non-stimulated PBMCs (GFP, flow cytometry, day 7) with CD14 was less than 2%.

B2: TCRab VHH (VHH)
VHH: EVQLVESGGGLVQPGGSLRLSCAASGDVHKINILGWYRQAPAKEREMVAHITIGDATDYADSAKGRFTISRDEAKNMVYLQMNSLKPEDTAVYFCRAYSRIYPYNYWGQGTLVTVSS
With B2, in test [1], the percentage transduction of target negative cells (flow cytometry, day 7) is less than 1%.

B3: membrane anchored VHH targeting human CD8a (VHH)
VHH: EVQLVESGGGLVQPGGSLRLSCAASGFTFDDYVIGWFRQAPGKGREGVACIRIFDRHTYYADSVKGRFTISSDNSKNTVYLQMNSLRAEDTATYYCAAGSFFGCTRPEGDMDYFGQGTLVQVQS
B3 gave a percentage transduction of target negative cells (flow cytometry, day 7) with human CD8a (human) of less than 1%.

B4: Nanobody (VHH) CD14 3RMB1 (VHH)
VHH: QVQLQESGGGLVQSGGSLRLSCAVSGSIFSIVDMGWYRQAPGKGRELVAELSDGSTNYADSVLGRFTISRDNAKNTVYLQMNSLKPEDTAVYYCNADLTGSSWSPYRYLEVWGQGTQVTVSS
The molecule B4 registered a percentage transduction of target negative cells (flow cytometry, 7-14 days) in the test with CD14 of less than 1%.

Source of the values: EP4484563A1.
